The record followed here is paper PMC6159513.

Targets include TLS/FUSΔP (UniProt P35637 1-526, del449-468); TLS/FUSΔR (UniProt P35637 1-506); RGG3ΔP (UniProt P35637 469-526); RGG3 (UniProt P35637 449-526); TLS/FUS (UniProt P35637 1-526).
Holding throughout (test): EMSA
For orientation: A gel shift assay detects complexes by their altered migration in electrophoresis.

The target in another series is T1, RGG3ΔRGG (UniProt P35637 449-526, del468-506).
T1 chain: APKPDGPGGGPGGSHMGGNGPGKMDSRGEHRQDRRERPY

Series [1] concerns the target RBD (RGG1-RGG2-RGG3 containing) (UniProt P35637 212-526).

TLS/FUSΔR, sequence (P35637 1-506, stated change not applied): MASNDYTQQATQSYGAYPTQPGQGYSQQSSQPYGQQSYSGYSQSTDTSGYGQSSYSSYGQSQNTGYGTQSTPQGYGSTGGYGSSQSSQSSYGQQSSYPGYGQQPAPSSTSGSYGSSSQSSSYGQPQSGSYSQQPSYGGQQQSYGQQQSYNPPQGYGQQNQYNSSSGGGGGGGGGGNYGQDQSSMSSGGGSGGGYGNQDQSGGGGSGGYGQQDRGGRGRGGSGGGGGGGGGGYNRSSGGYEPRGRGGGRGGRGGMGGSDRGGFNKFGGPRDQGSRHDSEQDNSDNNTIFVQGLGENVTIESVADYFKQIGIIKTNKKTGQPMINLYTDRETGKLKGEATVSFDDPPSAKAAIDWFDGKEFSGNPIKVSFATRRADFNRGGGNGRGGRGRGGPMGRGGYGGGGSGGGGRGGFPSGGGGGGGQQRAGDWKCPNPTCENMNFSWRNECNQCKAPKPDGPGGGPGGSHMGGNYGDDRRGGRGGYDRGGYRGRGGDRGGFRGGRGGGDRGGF
RBD (RGG1-RGG2-RGG3 containing), sequence (P35637 212-526): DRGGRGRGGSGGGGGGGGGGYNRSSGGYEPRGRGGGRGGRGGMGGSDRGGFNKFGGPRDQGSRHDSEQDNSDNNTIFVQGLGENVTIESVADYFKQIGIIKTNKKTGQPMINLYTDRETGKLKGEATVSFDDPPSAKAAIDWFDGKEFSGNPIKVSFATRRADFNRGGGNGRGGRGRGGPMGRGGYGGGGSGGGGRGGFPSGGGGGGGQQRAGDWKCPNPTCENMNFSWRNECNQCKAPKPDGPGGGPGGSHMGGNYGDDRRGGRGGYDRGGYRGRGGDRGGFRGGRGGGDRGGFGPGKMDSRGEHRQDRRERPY

B1: dsRNA (dsRNA)
RNA 1: UUAGGGUUAGGGUUAGGGUUAGGG
RNA 2: CCCUAACCCUAACCCUAACCCUAA
Regarding B1, the binding result with TLS/FUSΔP and with TLS/FUSΔR was “no binding” each time.

B2: TERRA (structured_RNA)
RNA: UUAGGGUUAGGGUUAGGGUUAGGG
A word on the Kd: it is the constant that tells how readily two partners part at equilibrium. Low values mean tighter binding, high ones weaker binding. With B2, the binding result in the series with RGG3ΔP, with RGG3ΔRGG, with TLS/FUSΔP and with TLS/FUSΔR was “no binding” in each case. In series [1], this molecule yielded a Kd of 6.2 ± 2 nM.

B3: ssDNA (ssDNA)
DNA: AGGGTTAGTGTTAGTGTTAGGG
Regarding B3, the binding result in the series with RGG3ΔRGG, with TLS/FUSΔP, in the series with TLS/FUSΔR and in the series with RGG3 was “no binding” in each case.

B4: ssRNA (ssRNA)
RNA: UUAGGGUUAGUGUUAGUGUUAGGG
Consider B4, for which the binding result with RGG3ΔRGG is “no binding”; in the series with TLS/FUSΔP it was “no binding”; with TLS/FUSΔR it was “no binding”; in the series with RGG3 it was “no binding”; in the series with TLS/FUS, “binds”.

B5: dsDNA (dsDNA)
DNA 1: AGGGTTAGGGTTAGGGTTAGGG
DNA 2: CCCTAACCCTAACCCTAACCCT
Take B5: the binding result with TLS/FUSΔP and in the series with TLS/FUSΔR was “no binding” each time.

B6: Htelo (structured_DNA)
DNA: AGGGTTAGGGTTAGGGTTAGGG
Regarding B6, the binding result in the series with RGG3ΔP, with RGG3ΔRGG, in the series with TLS/FUSΔP and with TLS/FUSΔR was “no binding” each time. Binding in series [1] was characterised by a dissociation constant (Kd) of 6.7 ± 2 nM.
